{"source": "paper PMC7840992", "molecular_target": "luminGAVPO (luminescent GAVPO), Nluc-GAVPO fusion with NG configuration", "data": [{"substance": "luminGAVPO (luminescent GAVPO), Nluc-GAVPO fusion with NG configuration", "values": [{"measurement": "induction ratio of a Gluc reporter driven by Gal4 binding sites, HEK293 cells, furimazine alone 0-25 uM, maximum at 2.5 uM", "value": 116, "unit": "fold"}]}]}
